Reference: PMC2583301

Target: yNap1 C200A/C249A/C272A labelled with Alexa dye at Cys-414 (yNap1m*) (yeast) (UniProt P25293)
Experiment: other fluorescence titration

Substance: linker histone H1 (natural protein)
- Kd: 3 nM
- stoichiometry N (H1 per yNap1 dimer): 2
